Data reported in US5434135A, “Growth factor compositions, preparation and use” (Parikh; Indu, priority 1993, dated 1995).

Experiments:
trypsin [1] = assay: in vitro; details: 1% trypsin
[2] = at one hour
Description: At the indicated times aliquots were withdrawn and the amount of intact parent peptide was determined as the area under the curve (AUC) of the A214 (absorbance at 214 nanometers) chromatogram;

trypsin [3] = details: 3% trypsin, after one hour

Which results are given for CC[C@H](C)[C@@H]1NC(=O)[C@H](Cc2ccc(O)cc2)NC(=O)CNC(=O)[C@H](C(C)C)NC(=O)[C@H](C(C)C)NC(=O)[C@@H](NC(=O)[C@H](CC(N)=O)NC(=O)[C@@H]2CSSC[C@@H]3NC(=O)[C@H](Cc4ccc(O)cc4)NC(=O)CNC(=O)[C@H](CC(=O)O)NC(=O)[C@H](Cc4c[nH]cn4)NC(=O)[C@H](CO)NC(=O)[C@H](CC(C)C)NC(=O)[C@@H]4CCCN4C(=O)[C@@H](NC(=O)[C@H](CCC(=O)O)NC(=O)[C@H](CO)NC(=O)[C@H](CC(=O)O)NC(=O)[C@H](CO)NC(=O)[C@@H](N)CC(N)=O)CSSC[C@H](NC(=O)[C@H](C(C)C)NC(=O)CNC(=O)[C@H](CC(=O)O)NC(=O)[C@H](Cc4c[nH]cn4)NC(=O)[C@H](CC(C)C)NC3=O)C(=O)N[C@@H](CCSC)C(=O)N[C@@H](Cc3ccc(O)cc3)C(=O)N[C@@H]([C@@H](C)CC)C(=O)N[C@@H](CCC(=O)O)C(=O)N[C@@H](C)C(=O)N[C@@H](CC(C)C)C(=O)N[C@@H](CC(=O)O)C(=O)N[C@@H](CCCCN)C(=O)N[C@@H](Cc3ccc(O)cc3)C(=O)N[C@@H](C)C(=O)N2)CSSC[C@@H](C(=O)N[C@@H](CCC(N)=O)C(=O)N[C@@H](Cc2ccc(O)cc2)C(=O)N[C@@H](CCCNC(=N)N)C(=O)N[C@@H](CC(=O)O)C(=O)N[C@@H](CC(C)C)C(=O)N[C@@H](CCCCN)C(=O)N[C@@H](Cc2c[nH]c3ccccc23)C(=O)N[C@@H](Cc2c[nH]c3ccccc23)C(=O)N[C@@H](CCC(=O)O)C(=O)N[C@@H](CC(C)C)C(=O)N[C@@H](CCCNC(=N)N)C(=O)O)NC(=O)[C@H](CCCNC(=N)N)NC(=O)[C@H](CCC(=O)O)NC(=O)CNC1=O [hEGF1-53]?
metabolised at 1 h (trypsin [1]): ~50%; degradation in gastric fluid [2]: approaching almost complete degradation; degradation in trypsin (trypsin [3]): 90-100%
